# Data taken from the supplement of paper PMC7877785.
# ± gives the uncertainty stated by the source.
# Assay: self-splicing fitness, log relative to wild type (ln ratio); higher = more splicing; Tetrahymena group I intron in knt gene, E. coli kanamycin selection, DiMSum; sequences stand for … in CUCUCU…GGAGGGAAAAGUUAUCAGGCAUGCACCUGGUAGCUAGUCUUUAAACCAAUAGAUUGCAUCGGUUUAAAAGGCAAGACCGUCAAAUUGCGGGAAAGGGGUCAACAGCCGUUCAGUACCAAGUCUCAGGGGAAACUUUGAGAUGGCCUUGCAAAGGGUAUGGUAAUAAGCUGACGGACAUGGUCCUAACCACGCAGCCAAGUCCUAAGUCAACAGAUCUUCUGUUGAUAUGGAUGCAGUUCACAGACUAAAUGUCGGUCGGGGAAGAUGUAUUCUUCUCAUAAGAUAUAGUCGGACCUCUCCUUAAUGGGAGCUAGCGGAUGAAGUGAUGCAACACUGGAGCCGCUGGGAACUAAUUUGUAUGCGAAAGUAUAUUGAUUAGUUUUGGAGUACUCGUGGUCG
# How it was run: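 Library with all eight P1ex-region intron nucleotides randomised, intron inside the knt kanamycin-resistance gene on pET-22b(+), in E. coli BL21(DE3). Cells grew overnight at 37°C or 30°C on LB agar with or without 25 μg/mL kanamycin (plus 100 μg/mL carbenicillin, 50 μM IPTG, 0.2% rhamnose), in six replicate transformations. Pooled colonies were amplicon-sequenced on Illumina HiSeq 2500. DiMSum fitness is the error-weighted combination of wild-type-normalised replicate fold changes, kanamycin versus none.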
Sequence,self-splicing fitness (ln) (30 °C),self-splicing fitness (ln) (37 °C)
CAACAGCAAUAUUACGCAGA,-3.45 ± 0.14,-1.35 ± 0.075
CAACAGCAAUAUUACGCCAG,-1.4 ± 0.11,-0.809 ± 0.14
CAACAGCAAUAUUACGCGAG,-2.29 ± 0.089,-0.359 ± 0.066
CAACAGCAAUAUUACGCGCU,-3.18 ± 0.23,-1.97 ± 0.19
CAACAGCAAUAUUACGCUCG,-0.822 ± 0.072,-0.727 ± 0.1
CAACAGCAAUAUUACGCUGU,-2.11 ± 0.2,-2.65 ± 0.26
CAACAGCAAUAUUACGCUUU,-2.5 ± 0.17,-2.54 ± 0.2
CAACAGCAAUAUUACGGAUU,-2.92 ± 0.13,-1.94 ± 0.14
CAACAGCAAUAUUACGGCAG,-0.117 ± 0.069,-0.00847 ± 0.076
CAACAGCAAUAUUACGGGGG,-2.07 ± 0.13,-1.08 ± 0.1
CAACAGCAAUAUUACGGUCA,-1.16 ± 0.066,-0.339 ± 0.069
CAACAGCAAUAUUACGUAGA,-2.68 ± 0.081,-1.18 ± 0.081
CAACAGCAAUAUUACGUCUA,-1.06 ± 0.053,-0.786 ± 0.055
CAACAGCAAUAUUACGUGAC,-4.28 ± 0.22,-2.23 ± 0.15
CAACAGCAAUAUUACGUGAG,-0.531 ± 0.049,-0.233 ± 0.07
CAACAGCAAUAUUACGUUAA,-2.36 ± 0.11,-2.16 ± 0.12
CAACAGCAAUAUUACGUUAC,-3.99 ± 0.21,-2.44 ± 0.14
CAACAGCAAUAUUACGUUAU,-3.16 ± 0.13,-1.94 ± 0.13
CAACAGCAAUAUUACGUUGU,-4.21 ± 0.18,-3.06 ± 0.16
CAACAGCAAUAUUACGUUUC,-3.28 ± 0.14,-2.33 ± 0.16
CAAGAGCAAUAUUACGAAAG,-1.52 ± 0.12,-1.64 ± 0.16
CAAGAGCAAUAUUACGAACU,-3.41 ± 0.27,-2.11 ± 0.26
CAAGAGCAAUAUUACGACGC,,-1.56 ± 0.32
CAAGAGCAAUAUUACGACUA,-3.01 ± 0.23,-2.47 ± 0.21

Sequence,self-splicing fitness (ln) (30 °C),self-splicing fitness (ln) (37 °C)
CAAGAGCAAUAUUACGAGAC,-2.43 ± 0.37,-1.93 ± 0.35
CAAGAGCAAUAUUACGCCAG,-1.92 ± 0.24,-2 ± 0.41
CAAGAGCAAUAUUACGCCUU,-3.52 ± 0.32,-2.57 ± 0.41
CAAGAGCAAUAUUACGCGAU,-2.62 ± 0.22,-2.51 ± 0.49
CAAGAGCAAUAUUACGCUAU,-3.62 ± 0.38,-2.19 ± 0.27
CAAGAGCAAUAUUACGGGCA,-2.96 ± 0.24,-1.79 ± 0.23
CAAGAGCAAUAUUACGGGUU,-3.54 ± 0.18,-3.25 ± 0.23
CAAGAGCAAUAUUACGGUGU,-3.52 ± 0.15,-2.08 ± 0.17
CAAGAGCAAUAUUACGUAUG,-3.02 ± 0.13,-1.36 ± 0.15
CAAGAGCAAUAUUACGUCCC,,-1.59 ± 0.28
CAAGAGCAAUAUUACGUCUA,-2.41 ± 0.13,-1.56 ± 0.11
CAAGAGCAAUAUUACGUCUC,-3.6 ± 0.17,-2.73 ± 0.18
CAAGAGCAAUAUUACGUCUG,-1.45 ± 0.15,-0.511 ± 0.16
CAAUAGCAAUAUUACGAGAU,-2.72 ± 0.12,-2.82 ± 0.17
CAAUAGCAAUAUUACGAGGU,-4.24 ± 0.28,-1.93 ± 0.21
CAAUAGCAAUAUUACGAUGG,-1.09 ± 0.074,-0.114 ± 0.096
CAAUAGCAAUAUUACGCACC,-3.66 ± 0.3,
CAAUAGCAAUAUUACGCCAG,-1.21 ± 0.12,-0.652 ± 0.15
CAAUAGCAAUAUUACGCCGA,-2.61 ± 0.26,-1.59 ± 0.17
CAAUAGCAAUAUUACGCGGA,-3.59 ± 0.35,-2.05 ± 0.16
CAAUAGCAAUAUUACGCGUG,-1.93 ± 0.092,-1.44 ± 0.095
CAAUAGCAAUAUUACGCUCU,-3.28 ± 0.24,-1.88 ± 0.17
CAAUAGCAAUAUUACGGAUA,-3.03 ± 0.48,-2.77 ± 0.35
CAAUAGCAAUAUUACGGCGG,0.429 ± 0.11,-0.0335 ± 0.14

Sequence,self-splicing fitness (ln) (30 °C),self-splicing fitness (ln) (37 °C)
CAAUAGCAAUAUUACGGCUA,-2.26 ± 0.22,-2.1 ± 0.19
CAAUAGCAAUAUUACGGCUU,-2.53 ± 0.13,-1.42 ± 0.13
CAAUAGCAAUAUUACGGUGA,-2.83 ± 0.23,-2.09 ± 0.21
CAAUAGCAAUAUUACGUAGG,-0.348 ± 0.092,-0.384 ± 0.14
CAAUAGCAAUAUUACGUCCU,-3.78 ± 0.42,-2.4 ± 0.28
CAAUAGCAAUAUUACGUCGC,-4.1 ± 0.36,-2.56 ± 0.29
CAAUAGCAAUAUUACGUCGG,-0.177 ± 0.069,0.202 ± 0.083
CAAUAGCAAUAUUACGUCUA,-2.78 ± 0.19,-2.52 ± 0.21
CAAUAGCAAUAUUACGUGGA,-3.29 ± 0.25,-2.92 ± 0.22
CAAUAGCAAUAUUACGUGGG,-3.7 ± 0.15,-3.49 ± 0.21
CAAUAGCAAUAUUACGUGUU,-4.08 ± 0.16,-2.95 ± 0.17
CAAUAGCAAUAUUACGUUCG,-0.45 ± 0.057,0.556 ± 0.081
CACAAGCAAUAUUACGAAAG,-0.721 ± 0.08,0.0107 ± 0.1
CACAAGCAAUAUUACGAAAU,-2.91 ± 0.19,-3.24 ± 0.24
CACAAGCAAUAUUACGACAA,-3.12 ± 0.2,-2.04 ± 0.17
CACAAGCAAUAUUACGACCC,-2.15 ± 0.4,-0.814 ± 0.24
CACAAGCAAUAUUACGACCG,0.562 ± 0.17,0.582 ± 0.2
CACAAGCAAUAUUACGACGA,-0.927 ± 0.11,-0.995 ± 0.12
CACAAGCAAUAUUACGACGC,-2.86 ± 0.32,-1.17 ± 0.18
CACAAGCAAUAUUACGAUCG,-0.581 ± 0.069,0.875 ± 0.091
CACAAGCAAUAUUACGAUGA,-2.99 ± 0.11,-1.21 ± 0.09
CACAAGCAAUAUUACGAUGG,-0.756 ± 0.045,0.369 ± 0.07
CACAAGCAAUAUUACGCAAG,-1.54 ± 0.087,-0.814 ± 0.1
CACAAGCAAUAUUACGCGAC,-2.93 ± 0.15,-3.22 ± 0.27

Sequence,self-splicing fitness (ln) (30 °C),self-splicing fitness (ln) (37 °C)
CACAAGCAAUAUUACGCUCA,-1.45 ± 0.093,-0.209 ± 0.097
CACAAGCAAUAUUACGGACA,-2.34 ± 0.12,-2.29 ± 0.12
CACAAGCAAUAUUACGGACC,-3.41 ± 0.24,-1.73 ± 0.2
CACAAGCAAUAUUACGGAUA,-1.79 ± 0.15,-2.4 ± 0.17
CACAAGCAAUAUUACGGCAC,-2.95 ± 0.19,-1.56 ± 0.17
CACAAGCAAUAUUACGGCCA,-1.1 ± 0.13,-0.928 ± 0.16
CACAAGCAAUAUUACGGGCU,-4.15 ± 0.24,-2.29 ± 0.17
CACAAGCAAUAUUACGUACG,-0.467 ± 0.063,0.449 ± 0.083
CACAAGCAAUAUUACGUACU,-3.09 ± 0.12,-0.878 ± 0.1
CACAAGCAAUAUUACGUAUG,-2.55 ± 0.095,-1.08 ± 0.085
CACAAGCAAUAUUACGUGAG,-4.48 ± 0.15,-3.21 ± 0.19
CACAAGCAAUAUUACGUGUG,-3.65 ± 0.12,-2.69 ± 0.12
CACAAGCAAUAUUACGUUUU,-4.18 ± 0.15,-3.45 ± 0.22
CACCAGCAAUAUUACGAAGA,-3.26 ± 0.21,-1.81 ± 0.2
CACCAGCAAUAUUACGAGCU,-3.87 ± 0.16,-3.55 ± 0.27
CACCAGCAAUAUUACGCACA,-1.23 ± 0.16,-0.504 ± 0.14
CACCAGCAAUAUUACGCAGU,-3.61 ± 0.19,-2.09 ± 0.23
CACCAGCAAUAUUACGCCCU,-4.12 ± 0.26,-0.642 ± 0.11
CACCAGCAAUAUUACGCCUU,-3.62 ± 0.14,-1.72 ± 0.12
CACCAGCAAUAUUACGCGAU,-2.55 ± 0.14,-2.61 ± 0.21
CACCAGCAAUAUUACGCGUC,-2.87 ± 0.15,-0.883 ± 0.12
CACCAGCAAUAUUACGCUGC,-4.19 ± 0.22,-2 ± 0.16
CACCAGCAAUAUUACGCUGG,-5.21 ± 0.25,-2.41 ± 0.16
CACCAGCAAUAUUACGCUGU,-3.61 ± 0.15,-2.63 ± 0.19
